In patent US20150011730A1 (UNIVERSITY OF SOUTH CAROLINA, published 2015):
No end group written: not given here. Pyrazole N‑cap, 4‑chlorophenylpyrazole (R1 H, R2 Cl, R3 H, R4 CH3, W N, X N, Y C, Z C) = not defined here

Legend:
Assay in all cases: FP binding assay
[1] = molecular target: T1, CDK4/cyclin D1 (as used in the binding assay) (UniProt P11802 1-303; P24385 1-295)
T1 construct: kept apart from the GST-tagged kinase-assay complex m2; also called CDK4/D1

[2] = molecular target: CDK2/cyclin A (as used in the binding assay) (UniProt P24941 1-298; P20248 1-432)
[3] = molecular target: T1, CDK4/cyclin D1 (as used in the binding …); remark: listed apart in the source

fold less active relative to the triazole N capping group [1]: ≥ 4 fold
IC50 [2]: 33.7 µM
IC50 [3]: 49 µM
Binder: {Pyrazole N‑cap, 4‑chlorophenylpyrazole (R1 H, R2 Cl, R3 H, R4 CH3, W N, X N, Y C, Z C)}-RLIF (reading uncertain; also: cap structure given only by scaffold parameters, also called 4-chlorophenylpyrazole) [SCCP 5765 (Pyrazole N-cap ligated to RLIF)]
